± gives the half width of the 95% confidence interval.
Columns and labels:
[1] = folding stability dG unfold from trypsin proteolysis; higher = more stable
Procedure, shortened: (§1)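 Sequencing followed digestion of designed mini-proteins with trypsin and chymotrypsin, each at 11 concentrations in threefold dilutions together with a no-protease condition. The mini-proteins were under 80 residues, had no cysteine, sat in a PA-tagged cDNA display construct, and were kept only if AlphaFold2 dimer inter-PAE was above 15. From the counts, Bayesian fitting gave K50, and unfolding free energy was derived against a sequence-predicted unfolded-state K50 and a shared folded-state K50, per protease or combined.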

[2] = folding stability dG unfold from chymotrypsin proteolysis; higher = more stable
Procedure, shortened: as §1

[3] = folding stability dG unfold (combined trypsin and chymotrypsin); higher = more stable
Procedure, shortened: as §1

| Sequence | folding stability dG unfold [1] [kcal/mol] | folding stability dG unfold [2] [kcal/mol] | folding stability dG unfold [3] [kcal/mol] |
| --- | --- | --- | --- |
| SAGEEIEELAKKLADELREKYPELEVKVEVVEVTVKTTVVKDKETGKLYTKTEITVKLKVEVVPKEELSAGG [r19_293_TrROS_Hall] | 1.99 ± 0.23 | 3.81 ± 0.21 | 3.08 ± 0.31 |
| SAGGSAGGSAKKKKKKFKIVKIEIEVEVVKDKKTNKYYVKVKIKIYLKGNKKEFEMEFVFPSAGGSAGGSAG [r3_424_TrROS_Hall] | 2.29 ± 0.24 | 4.07 ± 0.24 | 3.37 ± 0.59 |
| SAGGGKLFVTEDAVLLELLYPETGEPYLAVFNPPTGLVTVYFPNRLKALFKIDPDGNLTLVKIEPANSAGGS [r16_127_TrMRF] | 2.06 ± 0.093 | 2.979 ± 0.028 | 2.69 ± 0.078 |
| SKIKIEEVPEGEEVEIEIPETKKTITIVKKDDYLIIKVKDKKTGEEKEIVIKVPPENIEEVLKKIEELLKSA [r9_982_TrROS_Hall] | 2.01 ± 0.1 | 2.34 ± 0.25 | 2.11 ± 0.4 |
| SKKKKKKKKKKPKTVIIEIDVKEMSEEEIREILKKLPKNVKRVIIIAKSEEEKEKLKELLKEAGYEVEIVSA [r9_919_TrROS_Hall] | 1.96 ± 0.18 | 1.94 ± 0.069 | 1.76 ± 0.25 |
| SAGGSITSTTTLPDGTTVTTTVLPSGVTVVTTSTLDPATGTVSTTTTTLPPSSATTTTTTTTVPPLTSAGGS [r16_230_JUSTAS] | 3.18 ± 0.12 | 2.16 ± 0.029 | 2.58 ± 0.046 |
| SAGGSAGGSVVPVKAVFKLPDGDEVEGLALVDNRPDGSLVVLFQLPGTGETVGSATAELLKVEGSAGGSAGG [r6_254_TrMRF] | 0.523 ± 0.032 | 0.727 ± 0.1 | 0.638 ± 0.11 |
| SAGMKLTVTITDPATGKTYTITVKPGGETTVTNGSSTTSISIPTSDPKKVEELAEEIEPKGYTATITLESAG [r5_791_JUSTAS] | 1.17 ± 0.018 | 1.36 ± 0.17 | 1.3 ± 0.086 |
| SGGMVNATVTVTLPLPDLPPVTLTVTITEEATPEEAEARKKALAAELEAELRAAAADAALPAPALTSALLSA [r9_626_JUSTAS] | 1.85 ± 0.032 | 0.156 ± 0.43 | 1.24 ± 0.29 |
| SAGGGMLEVTREPSPDGVTRYVVTVPADRTVTVTRPDGTTTTTAAPDADAVITYTVPPGTPVAVSLTPSAGG [r13_82_JUSTAS] | 0.555 ± 0.03 | -0.524 ± 0.28 | 0.207 ± 0.092 |
| SAGGKKIEIKEENGSLVIKVDGYLVTIEPIDGKLVATVVKKDKKTKKWKIVETKILTLDEILELLKKSAGGS [r8_174_TrROS_Hall] | 1.91 ± 0.057 | 3.034 ± 0.026 | 2.66 ± 0.099 |
| SAGGKITAFVLVELPDGSVVERTYEFERLDDLLAFLEADPGPKLADLEIIPPEGSDDIIIPLVARVEPSAGG [r13_796_TrMRF] | 0.883 ± 0.041 | 2.15 ± 0.053 | 1.77 ± 0.1 |
| SAGGSAGGSMTVTVRRVYFPPNLAEGMTVEELRKKLGVPDLPVLVVDVEVTLTPEELEALLKESAGGSAGGS [r12_178_TrMRF] | 1.39 ± 0.041 | 2.21 ± 0.036 | 1.97 ± 0.05 |
| SMKEPPKVTIEIEYDEETETVRVRITLEDGTEIEVEVEAENKEEALREAIREALKKIFPELTDEQIEKLLSA [r9_634_TrROS_Hall] | 3.45 ± 0.24 | 1.58 ± 0.11 | 2.72 ± 0.29 |
| SAGKIEILDEKPYKDSITVVAKLPGTDEIIVLTYNPKTKTVEIKIFPPKGVKTIPVKAKDIEKALKEIASAG [r5_769_TrMRF] | 0.728 ± 0.072 | 2.18 ± 0.16 | 1.7 ± 0.25 |
| KKTYTAEEIRKLAEKLGLEVPEGDLEIKVVFKDNKKTYTIKPGEEYTLEEILEKLKKEKPNIVKIEIKKKPS [r1_135_TrROS_Hall] | 1.32 ± 0.18 | 2.31 ± 0.034 | 1.99 ± 0.27 |
| SAGGSAPPNIEREEYEFYLRNPDGKELGPAKIEVIRDPGDPDRPILTIEWPNGEPMLFDADDIEPLSAGGSA [r15_954_TrROS] | 0.18 ± 0.052 | 0.384 ± 0.17 | 0.317 ± 0.19 |
| SAGGELVLLIRVTPERIEIRLLPKEALEGLELEAPPGERLLLVELEPPPPEEEEREERRREEREELEESAGG [r13_74_TrROS_Hall] | 1.34 ± 0.13 | 1.4 ± 0.23 | 1.32 ± 0.41 |
| SAGGKKKKKKKKKKKKKVKVRVRIVVENKNGEKKEIEIELKGLTLEELKKLAKELEKKGFKVKKIEIESAGG [r13_227_TrROS_Hall] | 3.28 ± 0.3 | 3.53 ± 0.16 | 3.34 ± 0.39 |
| SAGGSAGGSAMTVTITHDVPPDVSVTVTVTSNNKKIPVSTPSRAASATIPSSEVSSLEIVPSSAGGSAGGSA [r18_170_JUSTAS] | -0.362 ± 0.29 | 0.792 ± 0.043 | 0.496 ± 0.12 |
